Among the data in patent US20230310584A1 (published 2023) are Kd and kon values, retold here.

Where “and” joins values, the source holds several entries; their conditions need not be identical. Equal values may be shown once.

One may read the Kd as a measure of binding affinity in units of concentration. A higher Kd goes with weaker binding. What is called kon is the rate constant with which the complex forms. Higher therefore signals faster complex formation.

In this experiment the target is RBD-iFcv1 (SARS-CoV-2; human, 23 residues replaced …).

B1: His-tagged CD64 (Acrobiosystems, FCA-H52H1) (receptor)
chain: QVDTTKAVITLQPPWVSVFQEETVTLHCEVLHLPGSSSTQWFLNGTATQTSTPSYRITSASVNDSGEYRCQRGLSGRSDPIQLEIHRGWLLLQVSSRVFTEGEPLALRCHAWKDKLVYNVLYYRNGKAFKFFHWNSNLTILKTNISHNGTYHCSGMGKHRYTSAGISVTVKELFPAPVLNASVTSPLLEGNLVTLSCETKLLLQRPGLQLYFSFYMGSKTLRGRNTSSEYQILTARREDSGLYWCEAATEDGNVLKRSPELELQVLGLQLPTP
For the molecule B1, the Kd is 2.34 nM and 1.61 nM and 0.963 nM; the kon is 260000 M⁻¹ s⁻¹ and 189000 M⁻¹ s⁻¹ and 200000 M⁻¹ s⁻¹.
